The target in assay [1] is T1, androgen receptor, wild type, full length (UniProt P10275 1-920).
T1 construct: also called AR; wtAR
T1 sequence (looked up): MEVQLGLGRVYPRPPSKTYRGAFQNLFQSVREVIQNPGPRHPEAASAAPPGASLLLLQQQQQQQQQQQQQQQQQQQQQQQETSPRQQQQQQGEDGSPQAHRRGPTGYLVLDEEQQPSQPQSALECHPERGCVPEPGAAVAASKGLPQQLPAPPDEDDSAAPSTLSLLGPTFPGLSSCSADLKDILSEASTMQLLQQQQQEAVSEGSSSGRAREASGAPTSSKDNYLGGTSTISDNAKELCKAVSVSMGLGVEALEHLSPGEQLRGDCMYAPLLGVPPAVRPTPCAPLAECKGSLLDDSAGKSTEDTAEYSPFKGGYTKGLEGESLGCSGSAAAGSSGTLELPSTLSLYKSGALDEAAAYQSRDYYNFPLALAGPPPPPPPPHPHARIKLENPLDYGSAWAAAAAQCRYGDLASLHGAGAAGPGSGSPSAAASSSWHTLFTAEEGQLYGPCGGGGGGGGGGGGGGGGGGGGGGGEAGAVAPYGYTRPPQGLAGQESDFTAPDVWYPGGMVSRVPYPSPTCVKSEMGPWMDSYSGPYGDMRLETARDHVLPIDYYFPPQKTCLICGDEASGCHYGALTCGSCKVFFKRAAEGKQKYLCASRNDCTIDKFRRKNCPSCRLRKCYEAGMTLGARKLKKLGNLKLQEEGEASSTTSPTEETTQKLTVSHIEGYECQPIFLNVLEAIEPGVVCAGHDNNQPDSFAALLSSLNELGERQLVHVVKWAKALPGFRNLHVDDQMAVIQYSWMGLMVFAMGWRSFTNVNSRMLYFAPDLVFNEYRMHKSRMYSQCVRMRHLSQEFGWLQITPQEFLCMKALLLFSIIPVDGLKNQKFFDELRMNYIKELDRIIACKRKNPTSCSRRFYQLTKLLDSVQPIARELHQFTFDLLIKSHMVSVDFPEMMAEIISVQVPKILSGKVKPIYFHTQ
The experiment in a line: co-immunoprecipitation in PC-3(AR)2 cells overexpressing Flag-Smad3, Flag-Smad4 and AR.

Assay [2] deals with T1, androgen receptor, wild type, full …. The experiment in a line: anti-Smad3 immunoprecipitation from PC-3(AR)2 cells, immunoblot for AR. On the technique in general: Immunoblotting shows a protein as a band on a membrane.
Assay [3] shares this target. The experiment in a line: GST pull-down of 35S-AR with PTEN deletion mutants.
Assay [4] has the same target. The assay is described as follows: co-immunoprecipitation in prostate cancer cells.

B1: N-terminal Flag-tagged, full-length Smad3 (other, human, UniProt P84022 1-425, looked up)
chain: MSSILPFTPPIVKRLLGWKKGEQNGQEEKWCEKAVKSLVKKLKKTGQLDELEKAITTQNVNTKCITIPRSLDGRLQVSHRKGLPHVIYCRLWRWPDLHSHHELRAMELCEFAFNMKKDEVCVNPYHYQRVETPVLPPVLVPRHTEIPAEFPPLDDYSHSIPENTNFPAGIEPQSNIPETPPPGYLSEDGETSDHQMNHSMDAGSPNLSPNPMSPAHNNLDLQPVTYCEPAFWCSISYYELNQRVGETFHASQPSMTVDGFTDPSNSERFCLGLLSNVNRNAAVELTRRHIGRGVRLYYIGGEVFAECLSDSAIFVQSPNCNQRYGWHPATVCKIPPGCNLKIFNNQEFAALLAQSVNQGFEAVYQLTRMCTIRMSFVKGWGAEYRRQTVTSTPCWIELHLNGPLQWLDKVLTQMGSPSIRCSSVS
notes: Expressed in PC-3 or PC-3(AR)2 cells; also called Flag-Smad3; FLAG-Smad3; not shown: N-terminal Flag tag
With B1, the binding result in assay [1] was “binds”.

B2: Smad3 (full length, untagged) (other, human, UniProt P84022 1-425, looked up)
chain: B1 chain
notes: also called endogenous Smad3; [35S]-labeled Smad3
As for B2, in assay [2], the binding result was “binds”.

B3: GST-PTEN-#3 (aa 253-403) (other, UniProt P60484 253-403, looked up)
chain: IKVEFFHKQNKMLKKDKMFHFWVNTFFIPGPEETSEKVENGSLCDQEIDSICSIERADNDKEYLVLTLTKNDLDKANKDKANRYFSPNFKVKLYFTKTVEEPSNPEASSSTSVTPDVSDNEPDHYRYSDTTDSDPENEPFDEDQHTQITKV
notes: range 253-403; not shown: glutathione S-transferase (GST), pGEX-3x vector
B3: the binding result in assay [3] is “no binding”.

B4: PTEN (phosphatase and tensin homolog deleted on chromosome ten), wild type, full length (enzyme)
chain: not shown
notes: Stood as in vitro expressed 35S-PTEN, as Dox-induced PTEN in LNCaP PTEN-C1 cells, as endogenous PTEN of CWR22 cells and as transfected PTEN in COS-1 cells; also called [35S]-PTEN; pCDNA3-PTEN
With B4, the binding result in assay [4] was “binds”.

B5: N-terminal Flag-tagged, full-length Smad4 (other, human, UniProt Q13485 1-552, looked up)
chain: MDNMSITNTPTSNDACLSIVHSLMCHRQGGESETFAKRAIESLVKKLKEKKDELDSLITAITTNGAHPSKCVTIQRTLDGRLQVAGRKGFPHVIYARLWRWPDLHKNELKHVKYCQYAFDLKCDSVCVNPYHYERVVSPGIDLSGLTLQSNAPSSMMVKDEYVHDFEGQPSLSTEGHSIQTIQHPPSNRASTETYSTPALLAPSESNATSTANFPNIPVASTSQPASILGGSHSEGLLQIASGPQPGQQQNGFTGQPATYHHNSTTTWTGSRTAPYTPNLPHHQNGHLQHHPPMPPHPGHYWPVHNELAFQPPISNHPAPEYWCSIAYFEMDVQVGETFKVPSSCPIVTVDGYVDPSGGDRFCLGQLSNVHRTEAIERARLHIGKGVQLECKGEGDVWVRCLSDHAVFVQSYYLDREAGRAPGDAVHKIYPSAYIKVFDLRQCHRQMQQQAATAQAAAAAQAAAVAGNIPGPGSVGGIAPAISLSAAAGIGVDDLRRLCILRMSFVKGWGPDYPRQSIKETPCWIEIHLHRALQLLDEVLHTMPIADPQPLD
notes: Expressed in PC3-AR2 cells; also called Flag-Smad4; FLAG-Smad4; not shown: N-terminal Flag tag
As for B5, in assay [1], the binding result is recorded as “binds”.

B6: GST-PTEN-#1 (aa 1-107) (other, UniProt P60484 1-107, looked up)
chain: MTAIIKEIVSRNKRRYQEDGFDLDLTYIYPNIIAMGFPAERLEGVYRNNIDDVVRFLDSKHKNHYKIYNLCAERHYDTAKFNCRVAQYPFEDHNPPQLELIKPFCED
notes: not shown: glutathione S-transferase (GST), pGEM-KG vector
For the molecule B6, in assay [3], the binding result is given as “no binding”.

Source of the values: patent US20040235717A1 (published 2004).
